Data: article PMC4964982 (2016)
Bridge positions count the residues as written; N and C are the ends. Square brackets hold non-standard residues; d marks the D form. Ends that are not written are not given here. S5 = C=CCCC[C@](C)(N)C(=O)O

Legend:
Test in all cases: TR-FRET competition with SRC3 fragment
SRC2-SP4 687-697 = target: T1, SRC2-SP4 687-697 (Homo sapiens, UniProt Q15596, staple 3-7)
T1 chain: HK[S5]LHR[S5]LQDS

PFE-SP2 687-697 = target: T2, PFE-SP2 687-697 (Homo sapiens, UniProt Q15596, staple 3-7; also: R to Q substitution, place not given here)
T2 chain: HK[S5]LHR[S5]LQDS

SRC2-WT 687-697 = target: T3, SRC2-WT 687-697 (Homo sapiens, UniProt Q15596)
T3 chain: HKILHRLLQDS

- IC50 (SRC2-SP4 687-697): 390 nM
- IC50 (PFE-SP2 687-697): 760 nM
- IC50 (SRC2-WT 687-697): 1100 nM
B1: ERα LBD (protein)
chain: NSLALSLTADQMVSALLDAEPPILYSEYDPTRPFSEASMMGLLTNLADRELVHMINWAKRVPGFVDLTLHDQVHLLECAWLEILMIGLVWRSMEHPGKLLFAPNLLLDRNQGKCVEGMVEIFDMLLATSSRFRMMNLQGEEFVCLKSIILLNSGVYTFLSSTLKSLEEKDHIHRVLDKITDTLIHLMAKAGLTLQQQHQRLAQLLLILSHIRHMSNKGMEHLYSMKCKNVVPLYDLLLEMLDAHRLHAPTS
